Results taken from US20200087410A1 (GLYCOTOPE, published 2020).

Molecular target: T1, CD40 (immobilized CD40, antigen ELISA / surface plasmon resonance) (human, UniProt P25942 21-193, limits assumed)
T1 construct: also called TNFRSF5; TNF receptor super family member 5
Test: immobilized CD40; screen by antigen ELISA and surface plasmon resonance (method of the KD not named)
Experimental: Following expression of the different constructs in NM-H9D8 and NM-H9D8-E6Q12 cells, the titer of the humanized antibody variants was determined and their concentration adjusted. Then, the humanized antibodies were screened in an antigen ELISA and via surface plasmon resonance.

T1 sequence (P25942 21-193 limits assumed): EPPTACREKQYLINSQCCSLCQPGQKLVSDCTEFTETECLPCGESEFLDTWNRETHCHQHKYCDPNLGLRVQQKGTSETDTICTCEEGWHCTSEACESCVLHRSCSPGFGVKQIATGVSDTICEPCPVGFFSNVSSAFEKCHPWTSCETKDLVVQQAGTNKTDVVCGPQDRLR

B1: humanized anti-CD40 antibody variant VH10/VL2 (as screened in Example 3) (antibody, V domains shown)
VH: EVQLVQSGAEVKKPGASVKISCKTSGYTFTEYIMHWVKQSPGKSLEWIGGIIPNNGGTSYNQKFKDRVTMTVDKSISTGYMELSRLRSDDTAVYYCTRREVYGRNYYALDYWGQGTLVTVSS
VL: DIQMTQSPSSLSASVGDRVTITCSASQGINNYLNWYQQKPGKAPKLLIYYTSSLHSGVPSRFSGSGSGTDYTFTISSLQPEDIATYYCQQYSNLPYTFGQGTKLEIKR
notes: Human gamma1 or gamma2 heavy constant region and human kappa constant region; also called hLob
- Kd: 25 nM
